Measured values from patent EP4792821A2 (Beijing Youcare Kechuang Pharmaceutical Technology Co., Ltd., dated 2026).
*1 amine or outer side, *2 acyl side, *3 side chain or, on linkers, in order; H or OH if unused. Where no end group is shown, it is not given here. Side-chain parts run from the residue outwards. The star is where a group is joined. Succinyl(4-O-cholesteryl) = CC(C)CCC[C@@H](C)[C@H]1CC[C@H]2[C@@H]3CC=C4C[C@@H](OC(=O)CCC(=O)*)CC[C@]4(C)[C@H]3CC[C@]12C; Suc = O=C(CCC(=O)[*:2])[*:1]

B1: Compound 9 (peptide)
peptide: Ac-WDEFDKKIEEVNKKIEESLKKIEESDKKLEEVNKKLEAAAKK(Succinyl(4-O-cholesteryl))-NH2
B2: Compound 8 (peptide)
peptide: Ac-FAEFNQKINQVNEKIEESLEEIRKSDEELHNVNATT-NH2
B3: Compound 44 (peptide)
peptide: Ac-WDEFDKKIEEVNKKIEESLKKIEESDKKLHNVEAAAKK(Succinyl(4-O-cholesteryl))-NH2
SMILES: CC[C@H](C)[C@H](NC(=O)[C@H](CCCCN)NC(=O)[C@H](CCCCN)NC(=O)[C@H](CC(C)C)NC(=O)[C@H](CO)NC(=O)[C@H](CCC(=O)O)NC(=O)[C@H](CCC(=O)O)NC(=O)[C@@H](NC(=O)[C@H](CCCCN)NC(=O)[C@H](CCCCN)NC(=O)[C@H](CC(N)=O)NC(=O)[C@@H](NC(=O)[C@H](CCC(=O)O)NC(=O)[C@H](CCC(=O)O)NC(=O)[C@@H](NC(=O)[C@H](CCCCN)NC(=O)[C@H](CCCCN)NC(=O)[C@H](CC(=O)O)NC(=O)[C@H](Cc1ccccc1)NC(=O)[C@H](CCC(=O)O)NC(=O)[C@H](CC(=O)O)NC(=O)[C@H](Cc1c[nH]c2ccccc12)NC(C)=O)[C@@H](C)CC)C(C)C)[C@@H](C)CC)C(=O)N[C@@H](CCC(=O)O)C(=O)N[C@@H](CCC(=O)O)C(=O)N[C@@H](CO)C(=O)N[C@@H](CC(=O)O)C(=O)N[C@@H](CCCCN)C(=O)N[C@@H](CCCCN)C(=O)N[C@@H](CC(C)C)C(=O)N[C@@H](Cc1c[nH]cn1)C(=O)N[C@@H](CC(N)=O)C(=O)N[C@H](C(=O)N[C@@H](CCC(=O)O)C(=O)N[C@@H](C)C(=O)N[C@@H](C)C(=O)N[C@@H](C)C(=O)N[C@@H](CCCCN)C(=O)N[C@@H](CCCCNC(=O)CCC(=O)O[C@H]1CC[C@@]2(C)C(=CC[C@H]3[C@@H]4CC[C@H]([C@H](C)CCCC(C)C)[C@@]4(C)CC[C@@H]32)C1)C(N)=O)C(C)C
B4: Compound 18 (peptide)
peptide: Ac-DEFDKKKIEEVNKKIEESLKKIEESDKKLEEVGSGSGK([Suc-Succinyl(4-O-cholesteryl)])-NH2
B5: Compound 15 (peptide)
peptide: Ac-DEFDKKKIEEVNKKIEESLKKIEESDKKLEEVGSGSGK([Suc-Succinyl(4-O-cholesteryl)])-NH2
B6: Compound 6 (peptide)
peptide: Ac-ADAFRLEVNDASSKINESIEESLLSLEKLHNVNATA-NH2
B7: Positive polypeptide 7 (peptide)
peptide: FDASISQVNEKINQSLAFIRKSDELLHNVNAGKSTTEAAAKK
modifications: not fully specified; also: modifications not known
B8: Compound 7 (peptide)
peptide: Ac-FDAFIQEINVNEDQSLEQSDELLLELHLLHSLLH-NH2

Tests used:
Experiment in all cases: cell-based or functional assay
[1] = target: F protein of RSV A long virus strain (Respiratory Syncytial Virus (RSV) A …, UniProt P12568 26-574)
[2] = target: F protein of hMPV virus strain A2 (human metapneumovirus (hMPV) A2)
[3] = target: F protein of hMPV virus strain B1 (human metapneumovirus (hMPV) B1)
[4] = target: F protein of hPIV Type 3 (hPIV3 C243) (human Parainfluenza Virus type 3 (hPIV3 …))

F protein of RSV A long virus strain, sequence (P12568 26-574): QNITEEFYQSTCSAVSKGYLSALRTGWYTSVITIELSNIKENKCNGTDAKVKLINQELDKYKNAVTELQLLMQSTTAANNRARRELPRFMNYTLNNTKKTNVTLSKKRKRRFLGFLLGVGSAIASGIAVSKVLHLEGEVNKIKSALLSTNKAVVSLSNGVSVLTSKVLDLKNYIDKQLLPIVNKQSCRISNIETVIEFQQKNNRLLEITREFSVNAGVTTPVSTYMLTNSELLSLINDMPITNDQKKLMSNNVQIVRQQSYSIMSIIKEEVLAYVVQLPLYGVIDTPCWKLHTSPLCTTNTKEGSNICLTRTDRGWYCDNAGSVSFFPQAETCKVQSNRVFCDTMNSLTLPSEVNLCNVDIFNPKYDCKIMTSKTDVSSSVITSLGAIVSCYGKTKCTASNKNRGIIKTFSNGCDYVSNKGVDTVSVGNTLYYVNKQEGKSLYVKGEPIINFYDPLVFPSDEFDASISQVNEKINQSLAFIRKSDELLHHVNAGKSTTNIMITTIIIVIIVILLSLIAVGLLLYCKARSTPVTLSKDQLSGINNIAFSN

Binder | IC50/nM, plaque reduction, RSV A long on HEp-2 cells (Table 2, Cell fusion inhibition activity) [1] | EC50 (nM), plaque reduction, hMPV A2 on Vero cells [2] | EC50 (nM), plaque reduction, hMPV B1 on Vero cells [3] | EC50 (nM), plaque reduction, hPIV3 C243 on LLC-MK2 cells [4]
B1 | 95.7 nM |  |  | 
B2 | 3770 nM |  |  | 
B3 | 12.4 nM | 14.6 nM | 6.6 nM | 27.9 nM
B4 | 19.2 nM | 35.9 nM |  | 50.5 nM
B5 | 10.4 nM | 17.9 nM |  | 20.7 nM
B6 | > 8000 nM |  |  | 
B7 | > 300 nM |  |  | 
B8 | > 8000 nM |  |  | 
